The values that follow are results of earlier work, collected in paper PMC3045386.

For this data set, the target named is Ran (Homo sapiens) (UniProt P62826).

Broadly, the Kd is the free concentration of one partner at which half of the binding sites on the other are occupied at equilibrium, for simple one-to-one binding. Take RanBP3 (from UniProt Q9H6Z4): the Kd is 10 µM.
